Test results from US20160319032A1 (MEDLMMUNE, published 2016).
Where a chain is given by its changes, count along the chain named.

B1: sc 254 (antibody, V domains shown)
VH: QVQLQESGPGLVKPSQTLSLTCTVSGGSISSGGYYWSWIRQHPGKGLEWIGYIYYSGSTYYNPSLKSRVTISVDTSKNQFSLKLSSVTAADTAMYYCARYRGPAAGRGDFYYFGMDVWGQGTTVTVSS
VL: DIVMTQTPLSLSVTPGQPASIFCKSSQSLLNSDGKTYLCWYLQKPGQPPQLLIYEVSNRFSGVPDRFSGSGSGTDFTLKISRVEAEDVGVYYCMQGIQLPWAFFGQGTKVEIK
notes: kappa light chain
B2: sc 264 (antibody, V domains shown)
VH: QVQLQESGPGLVKPSQTLSLTCTVSGGSISSGGYYWSWIRQHPGKGLEWIGYIYYSGRTYNNPSLKSRVTISVDTSKNQFSLKLSSVTAADTAVYYCARVATGRGDYHFYAMDVWGQGTTVTVSS
VL: SYELTQPSSVSVSPGQTARITCSGDVLAKKSARWFHQKPGQAPVLVIYKDSERPSGIPERFSGSSSGTTVTLTISGAQVEDEAAYYCYSAADNNLVFGGGTKLTVL
notes: lambda light chain
B3: sc 277 (antibody, V domains shown)
VH: EVQLVQSGAEVKKPGESLKISCKGSGYSFPSYWIGWVRQMPGKGLEWMGIIYPGDSDTRYSPSFQGQVTISADKSISTAYLQWSSLKASDTAMYYCARHPMEDGMDVWGQGTTVTVSS
VL: SYELTQPPSVSVSPGQTARITCSGDALPKKYAFWYQQKSGQAPVLVIYDDNKRPSGIPERFSGSSSGTMATLTITGAQVEDEADYYCYSTDSSGHHVFGGGTKLTVL
notes: lambda light chain
B4: sc 161 (antibody, V domains shown)
VH: EVQLVQSGAEVKKPGESLKISCKGSGYSFTSYWIGWVRQMPGKGLEWMGIIYPGDSDTRYSPSFQGQVTISADKSISTAYLQWSSLKASDTAMYYCARHGIAAAGFYYYYMDVWGQGTTVTVSS
VL: EIVLTQSPDTLSLSPGERASLSCRASQNVNRNYLVWYQQKPGQAPRLLIYGTSNRATGIPDRFSGSGSGTDFTLTISRLEPEDFAVYYCQQCGSLPFTFGPGTKVDIKR
notes: kappa light chain
B5: sc 320 (antibody, V domains shown)
VH: EVQLVESGGGLVKPGGSLRLSCAASGYTFTNYIMHWVRQAPGKGLEWVSSISISSSYIYYADSVKGRFTISRDNAKNSLYLQMNSLRAEDTAVYYCARDPVPLERRDYYYGMDVWGQGTTVTVSS
VL: QSVLTQPPSMSAAPGQKVTISCSGSSSNIGNNYVSWYQQLPGTAPKLLIYDNNKRPSGIPDRFSGSKSGTSATLGITGLQTGDEADYYCGTWDSSLSAGVFGGGTKLTVL
notes: lambda light chain
B6: sc 97 (antibody, V domains shown)
VH: EVQLVQSGAEVKKPGESLKISCKGSGYSFTSYWIGWVRQMPGKGLEWMGIIYPGDSDTRYSPSFQGQVILSADKSISTAYLQWSSLKASDTAMYYCARHDESSGYYYVFDIWGQGTMVTVSS
VL: SYELTQPPSVSVSPGQTARITCSGDALPKKYAYWYQQKSGQAPVLVIYEDIKRPSGIPERFSGSSSGTMATLTISGAQVEDEADYYCYSTDSSGNHWVFFGGGTKLTVL
notes: lambda light chain; also called sc 097
B7: sc 133 (antibody, V domains shown)
VH: QVQLVQSGAEVKKPGASVKVSCKASGYTFTGYYMHWVRQAPGQGLEWMGWINPKSGDTNYAQKFQGRVTLTRDTSTSTAYMELSRLRSDDTAVYYCARRLDVWGQGTTVTVSS
VL: QSVLTQPPSVSAAPGQKVTISCSGSSSNIGNNYVSWYQQLPGTAPKLLIYDNNKRPSGIPDRFSGSKSGTSATLGITGLQTGDEADYYCGTWNSSLSAGYVFGTGTKVTV
notes: lambda light chain; also called mAb sc 133
B8: sc 188 (antibody, V domains shown)
VH: QVQLQESGPGLVKPSQTLSLTCTVSGGSISSGVYYWTWIRQHPGNGLEWIGYIYYSGSTSYNPSLKSRVTISVDTSKKQFSLNLTSVTAADTAVYYCAREGPLRGDYYYGLDVWGQGTTVTVSS
VL: EIVLTQSPGTLSLSPGERATLSCRAGQTISSRYLAWYQQKPGQAPRPLIYGASSRATGIPDRFSGSGSGTDFTLTISRLEPEDFAVYYCQQYGSSPRTFGQGTKVEIK
notes: kappa light chain
B9: sc 58 (antibody, V domains shown)
VH: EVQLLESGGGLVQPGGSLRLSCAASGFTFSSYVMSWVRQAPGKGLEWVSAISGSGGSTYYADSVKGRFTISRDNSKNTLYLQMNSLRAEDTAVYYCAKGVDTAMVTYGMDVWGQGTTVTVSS
VL: SYELTQPPSVSVSPGQTARITCSGDALPKKYAYWYQQKSGQAPVLVIYDDSKRPSGIPERFSGSSSGTMATLTISGAQVEDEADYYCYSTDSSGNHRVFGGGTKLTVL
notes: lambda light chain; also called sc 058
B10: sc 264 RAD (antibody, V domains shown)
VH: B2 VH with G105A
VL: B2 VL
B11: sc 188 SDM (antibody, V domains shown)
VH: B8 VH with N83K
VL: B8 VL
B12: sc 49 (antibody, V domains shown)
VH: QVQLQESGPGLVKPSQTLSLTCTVAGGSIRSGDYYWSWIRQHPGKGLEWIGNIYYSGSTYYNPSLKSRITISVATSRNQFSLKLTSVTAADTAVYYCARGGAITIFGVFDYWGQGTLVTVSS
VL: not shown
notes: kappa light chain; also called sc 049

Molecular target: T1, α4β1 integrin on J6.77 cells (UniProt P13612 34-1032; P05556 21-798)
Assay: cell-based or functional assay

Percent Inhibition of J6.77 adhesion to CS-1 peptide, 5 ug/ml | Binder
0% | B1
-8% | B2
-17% | B3
12% | B4
-8% | B5
-7% | B6
-15% | B7
-10% | B8
-14% | B9

Molecular target: T2, human αVβ6 integrin on cells (human, UniProt P06756 31-1048; P18564 22-788)
T2 sequence (P06756 31-1048, chain 1 of 2): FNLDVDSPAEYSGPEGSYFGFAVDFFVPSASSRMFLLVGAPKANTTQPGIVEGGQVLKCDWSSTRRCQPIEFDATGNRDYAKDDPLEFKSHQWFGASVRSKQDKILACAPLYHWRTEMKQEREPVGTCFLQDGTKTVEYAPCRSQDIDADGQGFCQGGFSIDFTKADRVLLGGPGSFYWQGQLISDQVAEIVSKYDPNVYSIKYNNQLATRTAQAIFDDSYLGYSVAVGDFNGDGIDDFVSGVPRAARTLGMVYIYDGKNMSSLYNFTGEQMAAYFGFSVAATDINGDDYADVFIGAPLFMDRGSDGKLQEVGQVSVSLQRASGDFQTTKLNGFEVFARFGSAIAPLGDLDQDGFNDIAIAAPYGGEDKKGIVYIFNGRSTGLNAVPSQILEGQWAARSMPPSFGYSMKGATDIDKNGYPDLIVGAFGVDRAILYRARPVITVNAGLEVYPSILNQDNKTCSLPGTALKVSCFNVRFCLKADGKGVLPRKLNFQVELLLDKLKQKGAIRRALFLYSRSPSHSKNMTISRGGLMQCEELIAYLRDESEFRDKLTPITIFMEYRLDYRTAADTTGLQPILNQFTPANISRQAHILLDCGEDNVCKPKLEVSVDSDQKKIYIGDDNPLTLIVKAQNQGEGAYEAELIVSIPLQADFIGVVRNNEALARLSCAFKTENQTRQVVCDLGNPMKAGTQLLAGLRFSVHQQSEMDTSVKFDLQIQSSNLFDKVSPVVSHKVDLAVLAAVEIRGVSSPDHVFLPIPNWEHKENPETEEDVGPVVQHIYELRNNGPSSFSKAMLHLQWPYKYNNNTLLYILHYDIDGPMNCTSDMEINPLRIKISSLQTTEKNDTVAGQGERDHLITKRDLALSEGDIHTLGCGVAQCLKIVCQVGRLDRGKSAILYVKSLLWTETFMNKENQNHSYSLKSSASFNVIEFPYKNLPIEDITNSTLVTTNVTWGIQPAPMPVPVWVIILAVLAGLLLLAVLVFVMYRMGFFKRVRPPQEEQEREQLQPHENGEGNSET
T2 sequence (P18564 22-788, chain 2 of 2): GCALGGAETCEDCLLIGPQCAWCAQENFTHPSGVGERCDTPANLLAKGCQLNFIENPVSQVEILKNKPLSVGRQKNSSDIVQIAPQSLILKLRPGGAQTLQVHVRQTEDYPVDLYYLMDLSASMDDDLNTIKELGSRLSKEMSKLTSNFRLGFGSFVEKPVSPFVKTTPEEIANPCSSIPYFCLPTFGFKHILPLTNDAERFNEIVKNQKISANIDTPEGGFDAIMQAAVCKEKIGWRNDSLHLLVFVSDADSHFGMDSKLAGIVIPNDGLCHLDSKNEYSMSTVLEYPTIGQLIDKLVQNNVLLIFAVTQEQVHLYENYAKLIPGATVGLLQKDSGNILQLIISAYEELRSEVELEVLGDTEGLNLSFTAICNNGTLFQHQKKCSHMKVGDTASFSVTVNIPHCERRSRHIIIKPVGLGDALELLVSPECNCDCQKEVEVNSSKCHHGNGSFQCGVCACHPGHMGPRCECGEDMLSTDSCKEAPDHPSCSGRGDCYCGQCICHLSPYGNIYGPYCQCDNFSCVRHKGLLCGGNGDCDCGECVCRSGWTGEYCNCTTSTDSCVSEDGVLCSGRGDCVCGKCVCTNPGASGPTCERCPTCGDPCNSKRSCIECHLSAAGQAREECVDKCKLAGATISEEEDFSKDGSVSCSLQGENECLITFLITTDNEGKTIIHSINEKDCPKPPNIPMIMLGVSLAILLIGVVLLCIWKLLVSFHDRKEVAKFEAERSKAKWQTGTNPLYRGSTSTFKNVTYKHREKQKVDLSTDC
Assay: cell-based or functional assay

Percent Internalization, 1 ug/ml | Percent Internalization, 10 ug/ml | Binder
31% | 42% | B10
27% | 18% | B8
17% | 22% | B11

Molecular target: T2, human αVβ6 integrin on cells
Assay: cell-based or functional assay
Remark: another data set of the same source

Assay 1 % Inhibition of adhesion | Assay 2 % Inhibition of adhesion | Average % Inhibition of adhesion | Binder
98% | 106% | 102% | B1
98% | 101% | 100% | B3
98% | 106% | 102% | B4
99% | 103% | 101% | B8
77% | 46% | 62% | B9

Molecular target: T2, human αVβ6 integrin on cells
Assay: cell-based or functional assay
Remark: another data set of the same source

Percent Internalization, 1 ug/mL | Percent Internalization, 10 ug/mL | Binder
39% | 49% | B1
34% | 38% | B8

Molecular target: T1, α4β1 integrin on J6.77 cells
Assay: cell-based or functional assay
Remark: another data set of the same source

Percent Inhibition of J6.77 adhesion to CS-1 peptide, 5 ug/ml | Binder
-30% | B2
-2% | B10
2% | B8
-6% | B11

Molecular target: T3, cynomolgus αV on transfected HEK-293 cells (cynomolgus)
T3 construct: whole, on cells; Transfected alone into human HEK-293 cells; also called Cynomolgus alphaV
Assay: FACS, purified mAb, transfected HEK-293 (parental: 74)

percent of cells shifted | Binder
70% | B2

Molecular target: T4, cynomolgus αVβ6 on cells (cynomolgus)
T4 construct: whole, on cells; also called macaque αVβ6; Mac AVB6
Assay: as above

percent of cells shifted | Binder
54% | B2

Molecular target: T5, mouse αV on transfected HEK-293 cells (mouse, UniProt P43406 31-1044)
T5 construct: whole, on cells; Transfected alone into human HEK-293 cells; also called Mouse alpha V
T5 sequence (P43406 31-1044): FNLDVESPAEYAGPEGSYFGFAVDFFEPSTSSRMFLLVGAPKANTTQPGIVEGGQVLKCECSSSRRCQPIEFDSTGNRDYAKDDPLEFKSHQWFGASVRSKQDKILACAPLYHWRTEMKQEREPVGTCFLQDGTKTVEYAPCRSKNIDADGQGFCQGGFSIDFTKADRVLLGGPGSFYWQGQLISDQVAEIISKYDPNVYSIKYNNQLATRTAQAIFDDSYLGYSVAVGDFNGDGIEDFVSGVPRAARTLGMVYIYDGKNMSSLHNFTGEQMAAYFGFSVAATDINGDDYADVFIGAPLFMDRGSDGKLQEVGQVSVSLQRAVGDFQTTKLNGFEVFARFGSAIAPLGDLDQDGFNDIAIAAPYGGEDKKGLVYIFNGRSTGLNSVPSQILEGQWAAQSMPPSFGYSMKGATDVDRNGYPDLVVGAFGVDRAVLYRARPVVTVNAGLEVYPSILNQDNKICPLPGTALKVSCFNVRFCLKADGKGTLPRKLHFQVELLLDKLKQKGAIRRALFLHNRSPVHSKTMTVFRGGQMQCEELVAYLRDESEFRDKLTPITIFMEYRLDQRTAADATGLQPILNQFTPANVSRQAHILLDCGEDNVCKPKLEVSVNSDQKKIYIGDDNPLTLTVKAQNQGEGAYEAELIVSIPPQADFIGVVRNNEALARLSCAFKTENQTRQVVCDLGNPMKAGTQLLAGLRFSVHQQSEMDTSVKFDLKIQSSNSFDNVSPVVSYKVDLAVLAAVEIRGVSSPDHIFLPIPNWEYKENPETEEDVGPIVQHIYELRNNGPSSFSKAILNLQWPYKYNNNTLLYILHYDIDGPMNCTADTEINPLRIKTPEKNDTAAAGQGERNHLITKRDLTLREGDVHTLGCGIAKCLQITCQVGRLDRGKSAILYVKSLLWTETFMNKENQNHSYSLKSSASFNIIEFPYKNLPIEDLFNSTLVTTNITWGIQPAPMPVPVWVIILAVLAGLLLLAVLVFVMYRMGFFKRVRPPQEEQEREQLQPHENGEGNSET
Assay: as above

percent of cells shifted | Binder
71% | B2

Molecular target: T6, α5β1 integrin on K562 cells (UniProt P08648 42-1049; P05556 21-798)
T6 sequence (P08648 42-1049, chain 1 of 2): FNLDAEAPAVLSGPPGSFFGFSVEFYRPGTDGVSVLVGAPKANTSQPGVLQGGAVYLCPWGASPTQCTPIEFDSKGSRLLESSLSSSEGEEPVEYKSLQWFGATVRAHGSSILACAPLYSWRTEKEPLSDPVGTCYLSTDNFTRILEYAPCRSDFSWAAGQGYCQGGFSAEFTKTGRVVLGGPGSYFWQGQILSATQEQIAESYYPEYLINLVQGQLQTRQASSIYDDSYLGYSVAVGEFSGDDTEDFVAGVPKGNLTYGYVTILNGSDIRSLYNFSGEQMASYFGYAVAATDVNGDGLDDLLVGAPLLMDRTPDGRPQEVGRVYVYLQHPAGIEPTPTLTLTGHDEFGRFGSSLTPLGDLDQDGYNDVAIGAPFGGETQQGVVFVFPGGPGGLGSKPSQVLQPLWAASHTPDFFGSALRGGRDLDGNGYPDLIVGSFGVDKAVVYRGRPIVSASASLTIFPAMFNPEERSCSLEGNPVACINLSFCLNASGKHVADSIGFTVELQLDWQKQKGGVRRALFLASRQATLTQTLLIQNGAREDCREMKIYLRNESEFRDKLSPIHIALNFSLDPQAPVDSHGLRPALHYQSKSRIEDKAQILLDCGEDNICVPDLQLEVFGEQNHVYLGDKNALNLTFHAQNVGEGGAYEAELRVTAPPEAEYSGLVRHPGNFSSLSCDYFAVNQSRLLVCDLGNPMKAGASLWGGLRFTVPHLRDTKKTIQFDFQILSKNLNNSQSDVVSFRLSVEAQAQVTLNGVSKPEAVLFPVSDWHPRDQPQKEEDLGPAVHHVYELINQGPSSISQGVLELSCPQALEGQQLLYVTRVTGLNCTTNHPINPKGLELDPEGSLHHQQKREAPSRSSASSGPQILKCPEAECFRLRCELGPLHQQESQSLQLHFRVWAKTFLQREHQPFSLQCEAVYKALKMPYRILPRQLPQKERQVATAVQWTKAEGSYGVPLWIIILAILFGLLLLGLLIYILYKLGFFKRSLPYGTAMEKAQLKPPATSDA
T6 sequence (P05556 21-798, chain 2 of 2): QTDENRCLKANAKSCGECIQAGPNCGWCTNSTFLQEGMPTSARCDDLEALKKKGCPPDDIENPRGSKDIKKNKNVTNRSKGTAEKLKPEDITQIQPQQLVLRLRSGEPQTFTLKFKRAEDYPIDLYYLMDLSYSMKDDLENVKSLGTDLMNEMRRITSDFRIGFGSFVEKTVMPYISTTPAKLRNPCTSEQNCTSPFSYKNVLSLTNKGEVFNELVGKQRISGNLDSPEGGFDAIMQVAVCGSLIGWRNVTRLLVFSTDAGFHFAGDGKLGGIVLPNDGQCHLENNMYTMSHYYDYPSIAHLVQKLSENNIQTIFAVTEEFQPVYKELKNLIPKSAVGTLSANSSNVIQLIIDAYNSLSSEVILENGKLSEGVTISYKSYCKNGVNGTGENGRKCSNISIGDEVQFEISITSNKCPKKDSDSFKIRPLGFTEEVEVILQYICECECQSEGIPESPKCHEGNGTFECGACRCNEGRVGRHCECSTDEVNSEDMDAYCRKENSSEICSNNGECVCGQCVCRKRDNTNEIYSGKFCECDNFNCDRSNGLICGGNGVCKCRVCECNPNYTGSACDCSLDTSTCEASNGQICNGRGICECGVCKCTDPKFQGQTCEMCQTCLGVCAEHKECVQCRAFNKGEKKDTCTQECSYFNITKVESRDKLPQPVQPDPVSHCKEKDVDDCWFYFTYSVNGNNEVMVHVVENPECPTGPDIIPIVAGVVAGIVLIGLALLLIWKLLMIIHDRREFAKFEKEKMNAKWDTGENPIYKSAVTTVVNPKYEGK
Assay: cell-based or functional assay

% Inhibition of K562 adhesion to fibronectin | Binder
3% | B2
6% | B10
-5% | B8
-8% | B11

Molecular target: T4, cynomolgus αVβ6 on cells
Assay: FACS, supernatant, HEK-293 transfected with cynomolgus αV and β6

% Cells Shifted | GeoMean | Binder
23% | 30.2 | B12
55% | 66.4 | B2
19% | 33.5 | B5
35% | 37 | B6
32% | 35.2 | B7
25% | 22.8 | B9

Molecular target: T6, α5β1 integrin on K562 cells
Assay: cell-based or functional assay
Remark: another data set of the same source

Percent Inhibition of K562 adhesion to FN9-10, 5 ug/ml | Binder
-9% | B1
-4% | B2
-12% | B7
5% | B8

Molecular target: T2, human αVβ6 integrin on cells
Assay: cell-based or functional assay
Remark: another data set of the same source

IC50, adhesion of HT29 cells, n = 1 | IC50, adhesion of HT29 cells, n = 2 | IC50, adhesion of HT29 cells, n = 3 | Binder
0.013 µg/mL | 0.013 µg/mL | 0.039 µg/mL | B10
0.125 µg/mL | 0.157 µg/mL | 0.064 µg/mL | B8
0.022 µg/mL | 0.024 µg/mL | 0.067 µg/mL | B11

Molecular target: human αV on parental A375M cells (αVβ3 and αVβ5 integrins) (human, UniProt P06756 31-1048)
Sequence (P06756 31-1048 A375M, form in doubt): as the sequence (P06756 31-1048, chain 1 of 2) above, with A345M counted along it
Assay: cell-based or functional assay

Percent Inhibition of A375M adhesion to osteopontin peptide, 5 ug/ml | Binder
3% | B2
3% | B7

Molecular target: T2, human αVβ6 integrin on cells
Assay: FMAT, supernatant, HEK 293 cells stably overexpressing αVβ6

FMAT FL1XCount | Binder
1.6e+06 | B1
10700 | B3
16700 | B4
79800 | B8

Molecular target: T2, human αVβ6 integrin on cells
Assay: cell-based or functional assay
Remark: another data set of the same source

Estimated IC50, adhesion assay, n = 1 | Estimated IC50, adhesion assay, n = 2 | Estimated IC50, adhesion assay, n = 3 | Binder
0.063 µg/mL | 0.037 µg/mL | 0.037 µg/mL | B1
1.46 µg/mL | 0.54 µg/mL | 0.72 µg/mL | B3
2.41 µg/mL | 0.137 µg/mL |  | B4
0.041 µg/mL | 0.026 µg/mL |  | B8
4.07 µg/mL | 2.03 µg/mL | 3.26 µg/mL | B9
